Test results as given in paper PMC5453731 (Cell chemical biology, 2017).

T1: Rpn1^PC1 (Rpn1^391–642) (yeast (BY4741), UniProt P38764 391-642)
T1 sequence (looked up): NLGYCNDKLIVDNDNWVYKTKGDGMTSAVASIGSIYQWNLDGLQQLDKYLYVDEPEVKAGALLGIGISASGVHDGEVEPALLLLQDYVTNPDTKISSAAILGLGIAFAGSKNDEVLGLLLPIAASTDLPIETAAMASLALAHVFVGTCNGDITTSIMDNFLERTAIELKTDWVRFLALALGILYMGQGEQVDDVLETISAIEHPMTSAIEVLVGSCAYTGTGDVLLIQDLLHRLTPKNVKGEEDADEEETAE

B1: Dsk2^UBL (domain or fragment, yeast (BY4741), UniProt P48510 1-76, looked up)
chain: MSLNIHIKSGQDKWEVNVAPESTVLQFKEAINKANGIPVANQRLIYSGKILKDDQTVESYHIQDGHSVHLVKSQPK
B2: Ubp6^UBL (domain or fragment, yeast (BY4741), UniProt P43593 1-80, looked up)
chain: MSGETFEFNIRHSGKVYPITLSTDATSADLKSKAEELTQVPSARQKYMVKGGLSGEESIKIYPLIKPGSTVMLLGTPDAN
modifications: 15N-labelled
B3: Rub1 (natural protein, yeast (BY4741), UniProt Q03919 1-77, looked up)
chain: MIVKVKTLTGKEISVELKESDLVYHIKELLEEKEGIPPSQQRLIFQGKQIDDKLTVTDAHLVEGMQLHLVLTLRGG
modifications: 15N-labelled

Each binder was assayed against T1, Rpn1^PC1 (Rpn1^391–642) (assay: NMR titration).

Q: For B1, which Kd is on record?
A: Its Kd is 22 ± 12 µM.

Q: Which Kd does the source give for B2 here?
A: Its Kd is 40 ± 31 µM.

Q: For B3, which Kd is on record?
A: The Kd was 280 ± 20 µM.
